{"source": "paper PMC9126943", "about": "“ADAMTS4-specific MR probe to assess aortic aneurysms in vivo using synthetic peptide libraries” (Nature Communications, 2022)", "key": {"ADAMTS4": {"target": "T1, ADAMTS4 (Homo sapiens, UniProt O75173)", "T1 construct": "purchased R&D systems 4307-AD-020", "T1 sequence (O75173 213-837)": "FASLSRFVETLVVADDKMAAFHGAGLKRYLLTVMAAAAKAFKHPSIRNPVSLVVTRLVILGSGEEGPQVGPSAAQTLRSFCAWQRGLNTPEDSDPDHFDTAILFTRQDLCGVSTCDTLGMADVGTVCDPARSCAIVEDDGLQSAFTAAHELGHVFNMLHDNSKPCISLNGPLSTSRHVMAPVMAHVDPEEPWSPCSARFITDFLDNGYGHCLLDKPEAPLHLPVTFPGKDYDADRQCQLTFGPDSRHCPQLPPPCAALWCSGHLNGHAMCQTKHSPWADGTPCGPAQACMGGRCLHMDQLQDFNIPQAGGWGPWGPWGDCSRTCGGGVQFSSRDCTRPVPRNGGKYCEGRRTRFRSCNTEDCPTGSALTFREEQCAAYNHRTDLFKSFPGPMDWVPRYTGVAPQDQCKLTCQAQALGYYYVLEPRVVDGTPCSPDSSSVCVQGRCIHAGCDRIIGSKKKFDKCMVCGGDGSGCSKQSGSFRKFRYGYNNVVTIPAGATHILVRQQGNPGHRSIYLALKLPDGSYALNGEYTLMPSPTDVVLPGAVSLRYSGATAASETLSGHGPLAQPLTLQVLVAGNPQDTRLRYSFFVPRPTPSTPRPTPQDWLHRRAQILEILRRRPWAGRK", "test": "Relaxivity at 3 Tesla, unbound and bound to ADAMTS4", "type": "physicochemical", "conditions": "3 T, 1% BSA in PBS", "protocol": "One milliliter of a 1 µg/ml solution of the ADAMTS4-specific probe in 1% BSA in PBS buffer was measured in a reaction tube using a 3 T MRI scanner. 1% BSA in PBS buffer was used as a negative control. After each scan, 50 µl of a 0.2 µg/µl solution of ADAMTS4 (R&D systems, 4307-AD-020) was added to one reaction tube, while 50 µl of the 1% BSA in PBS buffer was added to the second reaction tube. Tubes were shaken and measured again. The following ADAMTS4 concentrations were measured: 0 µg, 10 µg, 20 µg, 30 µg, 40 µg, 50 µg, and 60 µg."}, "[1]": {"target": "T2, ADAMTS4 in the aneurysmal aortic wall of ApoE−/− mice (Mus musculus, UniProt Q8BNJ2)", "T2 construct": "from tissue", "T2 sequence (Q8BNJ2 209-833)": "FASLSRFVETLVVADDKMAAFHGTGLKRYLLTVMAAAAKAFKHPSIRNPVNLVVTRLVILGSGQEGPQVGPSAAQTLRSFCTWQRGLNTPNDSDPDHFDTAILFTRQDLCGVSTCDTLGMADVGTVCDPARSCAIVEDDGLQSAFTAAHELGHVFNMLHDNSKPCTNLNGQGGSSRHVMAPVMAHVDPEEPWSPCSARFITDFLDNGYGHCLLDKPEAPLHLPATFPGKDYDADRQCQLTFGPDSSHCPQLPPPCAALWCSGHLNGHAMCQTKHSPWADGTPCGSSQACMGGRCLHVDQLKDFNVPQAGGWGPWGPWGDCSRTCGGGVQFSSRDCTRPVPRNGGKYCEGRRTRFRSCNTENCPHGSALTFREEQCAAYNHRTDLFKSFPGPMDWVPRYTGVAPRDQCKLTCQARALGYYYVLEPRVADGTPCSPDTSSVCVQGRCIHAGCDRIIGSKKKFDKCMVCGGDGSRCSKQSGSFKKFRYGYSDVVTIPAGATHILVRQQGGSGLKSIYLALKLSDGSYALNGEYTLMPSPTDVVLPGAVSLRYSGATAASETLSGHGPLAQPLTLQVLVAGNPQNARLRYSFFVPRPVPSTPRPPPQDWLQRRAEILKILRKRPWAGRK", "test": "In vivo MRI, longitudinal study (1 week after aneurysm induction)", "conditions": "longitudinal group, 1 week after AngII, n = 12; one line per mouse", "protocol": "The longitudinal study includes an MR imaging session 1 week after aneurysm induction (n = 12) with the administration of the ADAMTS4-specific probe. Animals were then followed up for 4 weeks to evaluate the potential of the probes for the prediction of aneurysm progression. After 4 weeks, mice were sacrificed, and aortas excised.\nMR imaging was performed using a clinical 3 T Siemens system (Biograph, Siemens Healthcare Solutions, Erlangen, Germany). The system was equipped with a 4-channel receive-coil array for mouse body applications (Mouse Heart Array, P-H04LE-030, Version 1, Rapid Biomedical, Germany). Following anesthesia injection, the animals were positioned in a prone position, and body temperature (37 °C) was monitored using an MR-compatible heating system (Model 1025, SA Instruments Inc, Stony Brook, NY) to avoid rapid cooling. […]\nAnalysis of resulting MR images was performed using OsiriX (version 7.1, OsiriX Foundation, Bernex, Switzerland). […] In order to assess the signal intensities, regions of interest (ROIs) were measured as areas of signal enhancement, which were co-localized with areas of aneurysmal-aortic tissue. For these areas, the CNR was calculated using the following formula: CNR = (Combined vessel-wall and aneurysmal-aortic-tissue-signal − blood-signal)/standard-deviation-signal (noise). […]"}}, "note": "“And” between values parts separate entries of the source, which are not always exact repeats. Identical values can stand only once. Where a SMILES comes first, the peptide text is derived from it. Bridges are numbered along the chain shown (N, C = ends). The star is where a group is joined. DOTA = O=C(O)CN1CCN(CC(=O)O)CCN(CC(=O)*)CCN(CC(=O)O)CC1"}
{"smiles": "N=C(N)NCCC[C@@H]1NC(=O)[C@H](CCCNC(=N)N)NC(=O)[C@H](CO)NC(=O)[C@@H](N)CSSC[C@@H](C(=O)N[C@@H](CO)C(=O)NCC(=O)NCC(=O)N[C@@H](CO)C(=O)NCC(=O)NCC(=O)N[C@@H](CCCCNC(=O)CN2CCN(CC(=O)O)CCN(CC(=O)O)CCN(CC(=O)O)CC2)C(=O)NCC(N)=O)NC(=O)CNC1=O", "note": "(Gd complex, metal not drawn) [ADAMTS4-specific probe] (H-CSRRGCSGGSGGK(DOTA)G-NH2; disulfide 1-6)", "values": [{"measurement": "longitudinal relaxivity, unbound probe", "setting": "ADAMTS4", "value": "3.4 ± 0.19", "unit": "mM⁻¹ s⁻¹"}, {"measurement": "longitudinal relaxivity, bound probe", "setting": "ADAMTS4; ADAMTS4 added", "value": "6.13 ± 0.73", "unit": "mM⁻¹ s⁻¹"}, {"measurement": "CNR post administration, individual animals", "setting": "[1]", "value": "10.17 and 7.35 and 11.97 and 12.63 and 7.15 and 7.46 and 7.27 and 8.85 and 11.26 and 15.46 and 7.57 and 11.23"}]}
